Results from patent US20210301026A1 (ULTRAHUMAN TWELVE, published 2021).
Residue numbers refer to the chain shown, from its start. Names may count otherwise.

T1: monomeric cynomolgus monkey CSF1R ectodomain protein (cynomolgus monkey, UniProt P07333 20-517 (human entry))
T1 construct: also called monomeric cyno CSF1R; Cyno CSF1R
T1 chain: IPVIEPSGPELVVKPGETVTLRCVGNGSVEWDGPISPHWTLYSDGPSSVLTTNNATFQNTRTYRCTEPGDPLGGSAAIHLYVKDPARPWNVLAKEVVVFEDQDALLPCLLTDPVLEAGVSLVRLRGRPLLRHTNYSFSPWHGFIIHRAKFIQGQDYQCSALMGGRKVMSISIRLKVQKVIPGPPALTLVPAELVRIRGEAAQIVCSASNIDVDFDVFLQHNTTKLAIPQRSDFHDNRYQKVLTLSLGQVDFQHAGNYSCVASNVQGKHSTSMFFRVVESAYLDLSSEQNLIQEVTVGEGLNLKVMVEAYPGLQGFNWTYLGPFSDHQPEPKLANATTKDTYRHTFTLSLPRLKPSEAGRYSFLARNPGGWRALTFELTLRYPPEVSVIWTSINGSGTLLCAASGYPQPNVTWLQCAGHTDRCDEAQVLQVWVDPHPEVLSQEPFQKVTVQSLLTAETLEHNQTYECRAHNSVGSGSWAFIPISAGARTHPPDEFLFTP

B1: 29A03 (antibody, human IgG4, V domains shown)
VH: QVQLVQSGAEVKKPGSSVKVSCKASGYTFSSNYMIWVRQAPGQGLEWMGDINPYNGGATYNQKFQGRVTITADESTSTAYMELSSLRSEDTAVYYCAREPPYFSNLYVMDYWGQGTLVTVSS
VL: EIVLTQSPATLSLSPGERATLSCRASQSVEYEGENYLNWYQQKPGQAPRLLIYAASNRATGIPARFSGSGSGTDFTLTISSLEPEDFAVYYCQLSNQDLLTFGGGTKVEIK
notes: Library-derived clone, tested as human IgG4(S228P)/Ckappa IgG; framework residue limits counted on the grafts
B2: 29B07 (antibody, human IgG4, V domains shown)
VH: B1 VH with S30T, N32Y, M34I, N61A
VL: B1 VL with E34D
notes: as for B1
B3: 30D02 (antibody, human IgG4, V domains shown)
VH: B1 VH with N32Y, A58T, N61A, P100G
VL: B1 VL with E32Q
notes: as for B1
B4: MH4 (antibody, V domains shown)
VH: B1 VH with N32Y, T59N, N61A, P100G
VL: B1 VL with E30S, E32Q, N38A, A54D
notes: Designer clone, human IgG4(S228P)/Ckappa IgG
B5: MH6 (antibody, V domains shown)
VH: B1 VH with N32Y, T59N, N61A, P100G
VL: B1 VL with E30S, N38A
notes: as for B4
B6: MH17 (antibody, human IgG4, V domains shown)
VH: B1 VH with N32A, T59N, N61A, P100G
VL: B1 VL with E30S, L82P, Q97E
notes: Deimmunized MH5 derivative, human IgG4(S228P)/Ckappa IgG
B7: MH10 (antibody, human IgG4, V domains shown)
VH: B1 VH with T59N, N61A, P100G
VL: B1 VL with E30S, L50S, L51A, L82P, Q97E
notes: as for B6
B8: MH20 (antibody, human IgG4, V domains shown)
VH: B1 VH with N32S, T59N, N61A, P100G
VL: B1 VL with E30S, L50S, N57D, L82P, Q97E
notes: as for B6
B9: MH21 (antibody, human IgG4, V domains shown)
VH: B1 VH with N32S, T59N, N61A, P100G
VL: B1 VL with E30S, L82P, Q97E
notes: as for B6
B10: MH24 (antibody, human IgG4, V domains shown)
VH: B1 VH with N32H, T59N, N61A, P100G
VL: B1 VL with E30S, L50S, N57D, L82P, Q97E
notes: as for B6
B11: MH29 (antibody, human IgG4, V domains shown)
VH: B1 VH with T59N, N61A, P100G, Q114R
VL: B1 VL with E30S, L82P, Q97E
notes: as for B6
B12: MH16 (antibody, human IgG4, V domains shown)
VH: B1 VH with N32A, T59N, N61A, P100G
VL: B1 VL with E30S, L50S, N57D, L82P, Q97E
notes: Deimmunized MH5 derivative, human IgG4(S228P)/Ckappa IgG; also called mAb-5
B13: MH25 (antibody, human IgG4, V domains shown)
VH: B1 VH with N32H, T59N, N61A, P100G
VL: B1 VL with E30S, L82P, Q97E
notes: as for B6
B14: MH40 (antibody, human IgG4, V domains shown)
VH: B1 VH with N32H, T59N, N61A, P100G, Q114R
VL: B1 VL with E30S, L50S, N57D, L82P, Q97E
notes: as for B6
B15: MH12 (antibody, human IgG4, V domains shown)
VH: B1 VH with T59N, N61A, P100G
VL: B1 VL with E30S, L50S, N57D, L82P, Q97E
notes: Deimmunized MH5 derivative, human IgG4(S228P)/Ckappa IgG; also called mAb-4
B16: MH41 (antibody, human IgG4, V domains shown)
VH: B1 VH with N32H, T59N, N61A, P100G, Q114R
VL: B1 VL with E30S, L82P, Q97E
notes: Deimmunized MH5 derivative, human IgG4(S228P)/Ckappa IgG; also called MN41
B17: MH32 (antibody, human IgG4, V domains shown)
VH: B1 VH with N32A, T59N, N61A, P100G, Q114R
VL: B1 VL with E30S, L50S, N57D, L82P, Q97E
notes: Deimmunized MH5 derivative, human IgG4(S228P)/Ckappa IgG; also called MN32
B18: MH11 (antibody, human IgG4, V domains shown)
VH: B1 VH with T59N, N61A, P100G
VL: B1 VL with E30S, L50A, L51A, L82P, Q97E
notes: as for B6
B19: MH37 (antibody, human IgG4, V domains shown)
VH: B1 VH with N32S, T59N, N61A, P100G, Q114R
VL: B1 VL with E30S, L82P, Q97E
notes: as for B6

biological target: T2, monomeric human CSF1R ectodomain protein (human, UniProt P07333 20-517); assay: SPR Biacore, IgG captured, monomeric CSF1R analyte
T2 construct: also called biotinylated monomeric human CSF1R
Method: (§1) Affinity (KD) of purified IgGs was determined via SPR with antigen in-solution on a Biacore 3000 (GE). A mouse anti-human antibody (CH1 specific) was immobilized on a CM5 Sensor Chip to a level of 2000 RU in acetate buffer at pH 4.5 using amine coupling following the Wizard instructions for two channels. One channel was used for background signal correction. The standard running buffer HBS-EP pH 7.4 was used. Regeneration was performed with a single injection of 10 μl of 10 mM Glycine at pH 1.5 at 20 μl/minute. IgG samples were injected for 2 minutes at 50 nM at 30 μl/min followed by and off-rate of 60 seconds. The monomeric ectodomain protein (human CSF1R or cynomolgus monkey CSF1R) was injected in two fold serial dilutions from 100 nM down to 3.1 nM, for 2 minutes at 30 μl/min followed by an off-rate of 300 seconds. The obtained sensorgrams were analysed using the Biacore 3000 evaluation (BIAevaluation) software. The KD was calculated by simultaneous fitting of the association and dissociation phases to a 1:1 Langmuir binding model.
(§2) Biacore analyses of binding affinity were performed for all IgGs to solution-phase, monomeric human and cyno CSF1R proteins (Table 6). […] Affinity differentials of less than 3-fold between human and cyno target orthologs are highly beneficial in pre-clinical drug development analyses as they allow more accurate design and interpretation of e.g. monkey safety, PK and PD modelling experiments.

Binder | Kd | koff | kon
B1 | 0.39 nM | 0.0006 s⁻¹ | 1.6e+06 M⁻¹ s⁻¹
B2 | 0.34 nM | 0.00051 s⁻¹ | 1.5e+06 M⁻¹ s⁻¹
B3 | 0.48 nM | 0.00049 s⁻¹ | 1e+06 M⁻¹ s⁻¹
B4 | 1.9 nM | 0.0024 s⁻¹ | 1.3e+06 M⁻¹ s⁻¹
B5 | 0.88 nM | 0.0012 s⁻¹ | 1.3e+06 M⁻¹ s⁻¹

Biological target: T1, monomeric cynomolgus monkey CSF1R …
Assay: SPR Biacore, IgG captured, monomeric CSF1R analyte
Method: as §1, §2

Binder | Kd | koff | kon
B1 | 1.2 nM | 0.00032 s⁻¹ | 270000 M⁻¹ s⁻¹
B2 | 0.79 nM | 0.00025 s⁻¹ | 310000 M⁻¹ s⁻¹
B3 | 1.7 nM | 0.00032 s⁻¹ | 190000 M⁻¹ s⁻¹
B4 | 2.9 nM | 0.0014 s⁻¹ | 470000 M⁻¹ s⁻¹
B5 | 1.3 nM | 0.00064 s⁻¹ | 510000 M⁻¹ s⁻¹

biological target: T2, monomeric human CSF1R ectodomain protein; assay: SPR Biacore, IgG captured, monomeric CSF1R analyte; remark: another data set of the same source
Method: as §1

Binder | Kd | koff | kon | fold of the affinity of hu0301
B6 | 0.834 nM | 0.00112 s⁻¹ | 1.35e+06 M⁻¹ s⁻¹ | 
B7 | 0.624 nM | 0.00088 s⁻¹ | 1.41e+06 M⁻¹ s⁻¹ | 
B8 | 0.709 nM | 0.00177 s⁻¹ | 2.49e+06 M⁻¹ s⁻¹ | 
B9 | 1.23 nM | 0.00189 s⁻¹ | 1.54e+06 M⁻¹ s⁻¹ | 
B10 | 0.397 nM | 0.000976 s⁻¹ | 2.46e+06 M⁻¹ s⁻¹ | ≤ 2 fold
B11 | 0.562 nM | 0.000961 s⁻¹ | 1.71e+06 M⁻¹ s⁻¹ | 
B12 | 0.444 nM | 0.000897 s⁻¹ | 2.02e+06 M⁻¹ s⁻¹ | ≤ 2 fold
B13 | 0.634 nM | 0.000921 s⁻¹ | 1.45e+06 M⁻¹ s⁻¹ | 
B14 | 0.553 nM | 0.00113 s⁻¹ | 2.05e+06 M⁻¹ s⁻¹ | 
B15 | 0.342 nM | 0.000832 s⁻¹ | 2.43e+06 M⁻¹ s⁻¹ | ≤ 2 fold
B16 | 0.851 nM | 0.00109 s⁻¹ | 1.28e+06 M⁻¹ s⁻¹ | 
B17 | 0.62 nM | 0.00127 s⁻¹ | 2.04e+06 M⁻¹ s⁻¹ | 
B18 | 0.776 nM | 0.00119 s⁻¹ | 1.53e+06 M⁻¹ s⁻¹ | 

Biological target: T1, monomeric cynomolgus monkey CSF1R …
Assay: SPR Biacore, IgG captured, monomeric CSF1R analyte
Remark: another data set of the same source
Method: as §1

Binder | Kd | koff | kon | fold of the affinity of hu0301
B6 | 1.33 nM | 0.000906 s⁻¹ | 683000 M⁻¹ s⁻¹ | 
B7 | 1.07 nM | 0.000754 s⁻¹ | 705000 M⁻¹ s⁻¹ | 
B8 | 1.24 nM | 0.00134 s⁻¹ | 1.08e+06 M⁻¹ s⁻¹ | 
B9 | 1.84 nM | 0.00137 s⁻¹ | 746000 M⁻¹ s⁻¹ | 
B10 | 0.777 nM | 0.000833 s⁻¹ | 1.07e+06 M⁻¹ s⁻¹ | ≤ 2 fold
B11 | 0.913 nM | 0.000813 s⁻¹ | 891000 M⁻¹ s⁻¹ | 
B12 | 0.785 nM | 0.00075 s⁻¹ | 956000 M⁻¹ s⁻¹ | ≤ 2 fold
B13 | 1.03 nM | 0.000758 s⁻¹ | 733000 M⁻¹ s⁻¹ | 
B14 | 0.948 nM | 0.00101 s⁻¹ | 1.06e+06 M⁻¹ s⁻¹ | 
B15 | 0.557 nM | 0.000726 s⁻¹ | 1.3e+06 M⁻¹ s⁻¹ | ≤ 2 fold
B16 | 1.46 nM | 0.000972 s⁻¹ | 666000 M⁻¹ s⁻¹ | 
B17 | 0.979 nM | 0.00103 s⁻¹ | 1.05e+06 M⁻¹ s⁻¹ | 
B18 | 1.29 nM | 0.00103 s⁻¹ | 802000 M⁻¹ s⁻¹ | 

biological target: T3, human insulin (human, UniProt P01308 25-54; P01308 90-110, limits assumed); assay: ELISA on human insulin (development risk, polyreactivity), binding score
T3 construct: Coated antigen of the polyreactivity ('PK-risk indicator') ELISA
T3 sequence (P01308 25-54 limits assumed, chain 1 of 2): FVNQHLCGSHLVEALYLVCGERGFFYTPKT
T3 sequence (P01308 90-110 limits assumed, chain 2 of 2): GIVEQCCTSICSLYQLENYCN

Binder | binding result
B6 | no binding
B8 | no binding
B9 | no binding
B11 | no binding
B12 | no binding
B13 | no binding
B14 | no binding
B15 | no binding
B16 | no binding
B19 | no binding

biological target: T2, monomeric human CSF1R ectodomain protein; assay: AlphaScreen competition with mu0301 IgG4(S228P) for biotinylated monomeric human CSF1R
Method: The AlphaScreen assay (Perkin Elmer) was performed in a 25 μl final volume in 384-well white microtiter plates (Greiner). The reaction buffer contained 1×PBS pH 7.3 (Oxoid, Cat. nr. BR0014G) and 0.05% (v/v) Tween® 20 (Sigma, Cat. nr. P9416). Purified IgG samples were titrated in three fold serial dilutions starting at 500 nM final concentration and incubated with biotinylated human CSF1R for 20 minutes at room temperature. […] The emission of light was measured in the EnVision multilabel plate reader (Perkin Elmer) and analysed using the EnVision manager software. Values were reported as Counts Per Second (CPS) and corrected for crosstalk. The EC50 values were calculated using the […] in GraphPad Prism software (GraphPad Software, La Jolla, Calif.).

Binder | IC50 | fold lower epitope competition than hu0301
B1 | 4.6 nM | 
B2 | 3.86 nM | 
B3 | 3.92 nM | 
B4 | 18.9 nM | > 2 fold
B5 | 7.74 nM | > 2 fold
